Assay results reported in US20220127628A1.
Several values for one entry are separate records, joined by “and”; a condition that tells them apart may be missing. Equal values may be shown once.

Target: recombinant NetB (wild type NetB) toxin of C. perfringens (Clostridium perfringens)
Assay: cell-based or functional assay

Binder	lowest VHH concentration neutralizing NetB haemolysis
VHH ENB-1A4 (VHH) VHH: EVQLVESGGGLVQAGGSLRLSCAASGSIFSTNVMGWYRQAPGKQREFVAGITIGGTARYPDSVKGRFTISRDNTQNTVYLQMNNLKPEDTAVYYCNAVLPSDQRRWSWGQGTQVTVSS	1.25 µM and 0.625 µM
VHH ENB-1D11 (VHH) VHH: EVQLVESGGGLVQTGGSLRLSCTASGTIDMTYGLIWYRQAPGKERELVASIRRDGRTNYADSVKGRFTISIDNAKNSIHLQMNSLKPDDTARYYCNSPYHALWGQGTQVTVSS	1.25 µM and 0.625 µM
